% rescue by recombinant Pn 2-1 in GEM-treated AsPC1 cells, CTRL siRNA group (counteracted by HSPA1A knockdown), % rescue by recombinant Pn 2-1 in GEM-treated BxPC3 cells, CTRL siRNA group (counteracted by HSPA1A knockdown) and % rescue by recombinant Pn 2-1 in GEM-treated Panc1 cells, CTRL siRNA group (counteracted by HSPA1A knockdown) data for one substance are collected here from PMC11641934.

This test concerns the target heat shock protein 70 (HSP70) (human (endogenous in PDAC cell lines and CAFs)) (UniProt P0DMV8).
UniProt P0DMV8, sequence (P0DMV8 whole entry): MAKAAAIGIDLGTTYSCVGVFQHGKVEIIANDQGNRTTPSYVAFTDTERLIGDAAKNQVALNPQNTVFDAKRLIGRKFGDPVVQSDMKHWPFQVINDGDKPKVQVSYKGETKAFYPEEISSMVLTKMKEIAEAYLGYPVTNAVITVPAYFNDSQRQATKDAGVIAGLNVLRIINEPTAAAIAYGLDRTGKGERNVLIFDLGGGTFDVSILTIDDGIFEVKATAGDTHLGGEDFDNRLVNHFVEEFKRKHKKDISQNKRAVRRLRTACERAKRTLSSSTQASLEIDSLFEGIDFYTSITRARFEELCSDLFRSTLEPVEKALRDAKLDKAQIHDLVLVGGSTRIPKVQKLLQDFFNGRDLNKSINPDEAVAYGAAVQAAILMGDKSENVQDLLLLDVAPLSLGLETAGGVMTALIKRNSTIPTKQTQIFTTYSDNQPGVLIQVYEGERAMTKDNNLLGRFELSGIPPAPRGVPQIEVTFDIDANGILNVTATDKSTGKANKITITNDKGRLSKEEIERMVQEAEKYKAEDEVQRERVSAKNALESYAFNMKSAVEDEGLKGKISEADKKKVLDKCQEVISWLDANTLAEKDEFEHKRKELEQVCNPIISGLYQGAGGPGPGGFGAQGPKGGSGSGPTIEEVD

Consider “His tagged-recombinant Pn-ASV with exon 21 (Pn 2-1) (from UniProt Q15063-5 22-809) (natural protein)”, for which the % rescue by recombinant Pn 2-1 in GEM-treated AsPC1 cells, CTRL siRNA group (counteracted by HSPA1A knockdown) was 11.2%; the % rescue by recombinant Pn 2-1 in GEM-treated BxPC3 cells, CTRL siRNA group (counteracted by HSPA1A knockdown) came to 5.4%; the % rescue by recombinant Pn 2-1 in GEM-treated Panc1 cells, CTRL siRNA group (counteracted by HSPA1A knockdown) is 86.3%.
